Test results: patent US20240254223A1 (NOVIMMUNE, published 2024)

Experiments:
[1] = molecular target: T1, high affinity trimeric IL-2R (IL-2Rα, IL-2Rβ and IL-2Rγ) on HEK-Blue IL-2 cells (UniProt P01589 22-272; P14784 27-551; P31785 23-369); test: cell-based or functional assay
T1 sequence (looked up) 1: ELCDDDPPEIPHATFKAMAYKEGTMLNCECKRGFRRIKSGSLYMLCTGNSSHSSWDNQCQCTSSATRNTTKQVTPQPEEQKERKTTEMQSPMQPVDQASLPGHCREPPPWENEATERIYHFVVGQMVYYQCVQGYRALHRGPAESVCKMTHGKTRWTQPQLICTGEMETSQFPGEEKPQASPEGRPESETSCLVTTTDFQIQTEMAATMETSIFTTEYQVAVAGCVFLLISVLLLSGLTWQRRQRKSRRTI
T1 sequence (looked up) 2: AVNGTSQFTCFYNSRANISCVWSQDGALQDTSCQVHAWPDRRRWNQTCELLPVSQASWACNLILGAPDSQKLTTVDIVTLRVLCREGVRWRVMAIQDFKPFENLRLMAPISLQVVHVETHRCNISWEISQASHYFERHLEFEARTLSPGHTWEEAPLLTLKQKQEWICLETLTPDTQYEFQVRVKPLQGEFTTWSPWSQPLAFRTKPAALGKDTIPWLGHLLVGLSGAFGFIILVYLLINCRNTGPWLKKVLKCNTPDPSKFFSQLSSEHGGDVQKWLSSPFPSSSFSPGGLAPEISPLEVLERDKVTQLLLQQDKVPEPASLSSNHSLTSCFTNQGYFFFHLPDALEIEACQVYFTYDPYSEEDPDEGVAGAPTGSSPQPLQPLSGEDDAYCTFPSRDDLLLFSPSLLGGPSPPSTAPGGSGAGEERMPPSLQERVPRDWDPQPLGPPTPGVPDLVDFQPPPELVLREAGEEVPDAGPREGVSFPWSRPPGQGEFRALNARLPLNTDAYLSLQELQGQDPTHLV
T1 sequence (looked up) 3: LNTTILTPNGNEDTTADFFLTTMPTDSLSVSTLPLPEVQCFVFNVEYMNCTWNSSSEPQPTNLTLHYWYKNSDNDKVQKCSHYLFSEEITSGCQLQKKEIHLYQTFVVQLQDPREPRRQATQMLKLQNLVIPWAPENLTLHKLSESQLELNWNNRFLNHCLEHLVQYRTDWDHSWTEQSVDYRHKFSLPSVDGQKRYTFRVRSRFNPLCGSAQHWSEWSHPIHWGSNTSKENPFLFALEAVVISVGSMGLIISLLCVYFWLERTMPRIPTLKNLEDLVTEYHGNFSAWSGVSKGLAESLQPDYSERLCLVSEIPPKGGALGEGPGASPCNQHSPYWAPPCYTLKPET

[2] = molecular target: T2, low-moderate affinity dimeric IL-2R (IL-2Rβ and IL-2Rγ) on HEK-Blue CD122/CD132 cells (UniProt P14784 27-551; P31785 23-369, limits assumed); test: cell-based or functional assay
T2 sequence (looked up) 1: T1 sequence (looked up) 2
T2 sequence (looked up) 2: T1 sequence (looked up) 3

[3] = molecular target: T3, CD47 at the surface of Peak cells (human, UniProt Q08722 19-323); test: flow cytometry, Peak cells, before cleavage
T3 construct: whole, on cells; also called cell surface CD47
Method: (§1) Binding activity of antibody-cytokine/receptor fusions before and after cleavage was also evaluated by flow cytometry. Peak cells derived from HEK 293 which are human cells expressing CD47 were used to evaluate masking efficacy and binding recovery to CD47 by flow cytometry. Peak cells were diluted in cold FACS buffer (PBS, 2% BSA) to 1.2×10⁶ cells/mL. 3×10⁵ cells/well were added in a 96 well V-bottom plate. The plate was then centrifugated for 5 min at 1300 rpm, 4° C. Supernatants were removed and cells were washed twice using FACS buffer. A serial dilution of antibody-cytokine/receptor fusions previously digested with MMP-9 or not digested as described above was prepared in FACS buffer. An irrelevant antibody was included. Then, 150 μL of each diluted antibody were added in corresponding well and incubated for 30 min at 4° C. Cells were washed twice with FACS buffer and 100 μL of a mouse anti human Fc-PE conjugated secondary antibody were added and the plate was incubated for 20 min at 4° C. Cells were then washed twice with FACS buffer. Finally, 150 μL of SYTOX blue dead cell stain (ThermoFisher) diluted to 1/5000 in FACS buffer were added before detection by flow cytometry with Cytoflex (Beckman Coulter). Acquisition was performed with 10000 events for each well. Data were analyzed by FlowJo software.

His-tagged human CD47 = molecular target: T4, His-tagged human CD47 (human, UniProt Q08722 19-139, limits assumed); test: BLI, His-CD47 on HIS1K sensor, antibody 15 µg/mL
T4 construct: loaded on HIS1K biosensors at 2.5 µg/mL; also called target antigen; not shown: His tag
Method: The capacity of the masking domains to inhibit binding activity of the antibody was evaluated by Bio-Layer Interferometry (BLI). […] Binding experiments were performed to evaluate the masking efficiency and the binding recovery after cleavage of the masking domains. BLI was performed on an Octet RED96 system (Sartorius). His-tagged human CD47 was diluted at 2.5 μg/mL in Kinetic Buffer (KB) (Sartorius) and loaded on HIS1K biosensors (anti-His tag antibody biosensors, Sartorius) for 300 seconds. Loaded biosensors were dipped into antibodies diluted at 15 μg/mL in KB for 300 seconds to monitor association. Then, biosensors were transferred in KB for dissociation for 60 seconds. Binding profiles were then analyzed with ForteBio Data Analysis software.

[4] = molecular target: T3, CD47 at the surface of Peak cells; test: flow cytometry, Peak cells; EC50 before / EC50 after cleavage
Method: as §1

B1: pNOVI V2K K91_IL-2Rα CM1_VKCK_IL-2_CM1_VHCH (antibody, human IgG1, kappa)
light: ELCDDDPPEIPHATFKAMAYKEGTMLNCECKRGFRRIKSGSLYMLCTGNSSHSSWDNQCQCTSSATRNTTKQVTPQPEEQKERKTTEMQSPMQPVDQASLPGHCREPPPWENEATERIYHFVVGQMVYYQCVQGYRALHRGPAESVCKMTHGKTRWTQPQLICTGEMETSQFPGEEKPQASPEGRPESETSCLVTTTDFQIQTEMAATMETSIFTTEGGGGSVHMPLGFLGPGGSDIQMTQSPSSLSASVGDRVTITCNVDQVIANWLNWYQQKPGKAPKLLIYAASSLQSGVPSRFSGSGSGTDFTLTISSLQPEDFATYYCQQMHPRAPKQFGQGTKVEIKRTVAAPSVFIFPPSDEQLKSGTASVVCLLNNFYPREAKVQWKVDNALQSGNSQESVTEQDSKDSTYSLSSTLTLSKADYEKHKVYACEVTHQGLSSPVTKSFNRGEC
heavy: not shown
notes: masked K91 fusion, uncleaved; also called n690; construct No 690
With B1 the “EC50 before cleavage IL-2, HEK Blue IL-2 αβγ reporter assay” value [1] was 0.07 nM, the “EC50 ratio (BC/AC), HEK Blue IL-2 αβγ reporter assay” value [1] was 1 and the “EC50 before cleavage IL-2, HEK Blue IL-2 βγ reporter assay” value [2] was 0.12 nM. The “EC50 ratio (BC/AC), HEK Blue IL-2 βγ reporter assay” value [2] was 4, the EC50 [3] was 8.7 nM and the “Binding before cleavage (BLI)” value (His-tagged human CD47) was 1.2 nm. The “Binding recovery (BC/AC)” value [4] was 20.
